This assay addresses T1, MRM3 (human (endogenous in HEK293)), Q9HC36.
T1 chain: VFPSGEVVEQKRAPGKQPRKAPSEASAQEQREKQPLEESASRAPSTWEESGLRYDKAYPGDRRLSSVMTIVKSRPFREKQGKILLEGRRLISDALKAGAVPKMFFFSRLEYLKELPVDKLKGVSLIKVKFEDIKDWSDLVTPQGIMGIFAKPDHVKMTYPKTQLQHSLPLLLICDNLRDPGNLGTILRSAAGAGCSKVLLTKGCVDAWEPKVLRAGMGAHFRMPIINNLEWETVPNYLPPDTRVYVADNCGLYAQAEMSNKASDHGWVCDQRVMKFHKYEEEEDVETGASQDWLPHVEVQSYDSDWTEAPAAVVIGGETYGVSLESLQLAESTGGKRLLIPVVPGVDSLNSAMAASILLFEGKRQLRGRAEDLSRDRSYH
Description: cryo-EM structure; native 39S pre-mitoribosomal particles isolated by anti-Flag affinity purification (MALSU1 or GTPBP10 bait; state 1 also with particles from a uL17 bait) from HEK293 cells; single-particle analysis, average resolutions between 3.1 Å and 5.7 Å; factors fitted as rigid-body homology models or crystal structures. To be noted: remark: other sources report otherwise.

B1: MRM3, Q9HC36 41-420 (natural protein)
chain: T1 chain
For orientation: stoichiometry N means the number of molecules, sites or subunits per partner or assembly. The molecule B1 returned a stoichiometry N of 2.

The values are drawn from paper PMC8316566.
